{
  "source": "IntAct's records for PubMed 17853893",
  "parents": {"B1": {"name": "Programmed cell death 6-interacting protein (Homo sapiens), Q8WUM4 (parent)", "chain": "MATFISVQLKKTSEVDLAKPLVKFIQQTYPSGGEEQAQYCRAAEELSKLRRAAVGRPLDKHEGALETLLRYYDQICSIEPKFPFSENQICLTFTWKDAFDKGSLFGGSVKLALASLGYEKSCVLFNCAALASQIAAEQNLDNDEGLKIAAKHYQFASGAFLHIKETVLSALSREPTVDISPDTVGTLSLIMLAQAQEVFFLKATRDKMKDAIIAKLANQAADYFGDAFKQCQYKDTLPKEVFPVLAAKHCIMQANAEYHQSILAKQQKKFGEEIARLQHAAELIKTVASRYDEYVNVKDFSDKINRALAAAKKDNDFIYHDRVPDLKDLDPIGKATLVKSTPVNVPISQKFTDLFEKMVPVSVQQSLAAYNQRKADLVNRSIAQMREATTLANGVLASLNLPAAIEDVSGDTVPQSILTKSRSVIEQGGIQTVDQLIKELPELLQRNREILDESLRLLDEEEATDNDLRAKFKERWQRTPSNELYKPLRAEGTNFRTVLDKAVQADGQVKECYQSHRDTIVLLCKPEPELNAAIPSANPAKTMQGSEVVNVLKSLLSNLDEVKKEREGLENDLKSVNFDMTSKFLTALAQDGVINEEALSVTELDRVYGGLTTKVQESLKKQEGLLKNIQVSHQEFSKMKQSNNEANLREEVLKNLATAYDNFVELVANLKEGTKFYNELTEILVRFQNKCSDIVFARKTERDELLKDLQQSIAREPSAPSIPTPAYQSSPAGGHAPTPPTPAPRTMPPTKPQPPARPPPPVLPANRAPSATAPSPVGAGTAAPAPSQTPGSAPPPQAQGPPYPTYPGYPGYCQMPMPMGYNPYAYGQYNMPYPPVYHQSPGQAPYPGPQQPSYPFPQPPQQSYYPQQ", "partner": "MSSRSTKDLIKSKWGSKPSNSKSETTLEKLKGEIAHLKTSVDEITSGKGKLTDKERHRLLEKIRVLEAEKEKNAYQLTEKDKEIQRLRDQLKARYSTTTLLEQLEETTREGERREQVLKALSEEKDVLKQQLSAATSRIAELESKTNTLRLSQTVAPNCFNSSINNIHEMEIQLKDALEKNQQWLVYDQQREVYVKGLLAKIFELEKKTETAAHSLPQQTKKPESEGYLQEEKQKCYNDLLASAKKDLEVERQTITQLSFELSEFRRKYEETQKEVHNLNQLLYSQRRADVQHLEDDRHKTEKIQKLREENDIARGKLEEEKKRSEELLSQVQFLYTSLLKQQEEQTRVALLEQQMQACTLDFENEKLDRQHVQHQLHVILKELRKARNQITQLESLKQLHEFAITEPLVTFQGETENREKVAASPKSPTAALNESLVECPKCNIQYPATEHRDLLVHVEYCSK"}},
  "data": [
    {"variants_of": "B1", "settings": "with cep55_human CEP55, Q53EZ4", "values": [
      {"variant": "G800A;P801A;P802A", "effect of a mutation on the interaction": "disrupting interaction strength"}
    ]}
  ]
}
